What all share (experiment): cell_activity
The test system of data set [1] is CCR5 ZFN pair, wild-type ZC linker (8266 with partner) (artificial). The following applies: average of 2.
In data set [2] the test system is CCR5 ZFN pair, L6a linker (artificial). The following applies: average of 2.
The subject of data set [3] is CCR5 ZFN pair, L7a linker (artificial). The following applies: average of 2.
Data set [4] relates to mROSA ZFN pair, Wt/L7a linkers (artificial). The following applies: Neuro2A, CEL-I; mock 0.4.
Data set [5] has as its system mROSA ZFN pair, Wt/Wt linkers (artificial). The following applies: Neuro2A, CEL-I; replicates 23.2, 18.7; mock 0.4.
For data set [6], the system named is rat IgM ZFN pair, ZC linkers (artificial). The following applies: rat C6 cells, CEL-I.
The subject of data set [7] is rat IgM ZFN pair, L7a linker (artificial). The following applies: rat C6 cells, CEL-I.

As to CCR5 target, 4 bp gap, the activity in data set [1] turned out to be 1.2 % NHEJ.

Take CCR5 target, 5 bp gap: the activity stood at 35 % NHEJ in data set [1] and 39.3 % NHEJ in data set [2]. Turning to CCR5 target, 6 bp gap, the results for the activity in data set [1], in data set [2] and in data set [3] were 11.1 % NHEJ, 25.4 % NHEJ and 31.8 % NHEJ, respectively. Substance “GTCATCCTCATCCTGAGTTTAAACTGCAAAAG (double strand) [CCR5 target, 8 bp gap]” gave an activity in data set [3] of 6.1 % NHEJ. “GTCATCCTCATCCTGGTTTAAACTGCAAAAG (double strand) [CCR5 target, 7 bp gap]”: the activity was 5.1 % NHEJ in data set [2] and 39.6 % NHEJ in data set [3]. With mROSA target, 6 bp gap, the activity in data set [4] came out at 7.5 % NHEJ; in data set [5], 22.6 % NHEJ. Consider rat IgM target, 6 bp gap, for which the activity came to 1.93 % NHEJ in data set [6] and 2.43 % NHEJ in data set [7].

Values taken from patent publication US20150064789.
